The source of these data is patent US20130302399A1 (ALDERBIO, published 2013).

First the molecules themselves.
B1: Ab9 (antibody, human IgG1, kappa, N297A, V domains shown)
VH: QSVEESGGRLVTPGTPLTLTCTVSGIDLSSYAMGWVRQAPGKGLEYIGIIVSYGPTYYASWAKGRFTISKTSTTVDLKITSPTAEDTATYFCARDLDANSSGYYGCFNIWGQGTLVTVSS
VL: AVVLTQTPASVSAAVGGTVTIKCQASQSISTALAWYQQKPGQPPKLLIYAASPLASGVSSRFKSSGSGTEFTLTISDLECADAATYYCQSYYGSSNIAFGGGTELEILR
notes: also called antibody Ab9
B2: Ab7 (antibody, human IgG1, kappa, N297A)
heavy: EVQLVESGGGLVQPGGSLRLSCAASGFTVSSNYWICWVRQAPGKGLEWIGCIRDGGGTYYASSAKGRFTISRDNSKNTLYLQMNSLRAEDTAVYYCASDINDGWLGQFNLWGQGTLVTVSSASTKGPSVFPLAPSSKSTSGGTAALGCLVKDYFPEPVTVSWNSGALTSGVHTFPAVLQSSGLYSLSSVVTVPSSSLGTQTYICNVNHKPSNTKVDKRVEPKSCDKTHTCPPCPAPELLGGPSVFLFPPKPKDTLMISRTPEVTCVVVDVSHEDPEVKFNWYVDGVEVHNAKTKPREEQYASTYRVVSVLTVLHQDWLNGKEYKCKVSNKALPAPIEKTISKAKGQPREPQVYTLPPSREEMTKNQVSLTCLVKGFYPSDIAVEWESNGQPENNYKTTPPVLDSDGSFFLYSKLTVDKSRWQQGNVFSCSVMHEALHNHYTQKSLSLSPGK
light: ADIVMTQSPSSLSASVGDRVTIKCQASQSISAYLAWYQQKPGKVPKLLIYRAYTLASGVPSRFSGSGSGTDFTLTISSLQPEDVATYYCQSYYSVTTNTYGNTFGGGTKVEIKRTVAAPSVFIFPPSDEQLKSGTASVVCLLNNFYPREAKVQWKVDNALQSGNSQESVTEQDSKDSTYSLSSTLTLSKADYEKHKVYACEVTHQGLSSPVTKSFNRGEC
notes: also called antibody Ab7
B3: Ab18 (antibody, human IgG1, kappa, N297A)
heavy: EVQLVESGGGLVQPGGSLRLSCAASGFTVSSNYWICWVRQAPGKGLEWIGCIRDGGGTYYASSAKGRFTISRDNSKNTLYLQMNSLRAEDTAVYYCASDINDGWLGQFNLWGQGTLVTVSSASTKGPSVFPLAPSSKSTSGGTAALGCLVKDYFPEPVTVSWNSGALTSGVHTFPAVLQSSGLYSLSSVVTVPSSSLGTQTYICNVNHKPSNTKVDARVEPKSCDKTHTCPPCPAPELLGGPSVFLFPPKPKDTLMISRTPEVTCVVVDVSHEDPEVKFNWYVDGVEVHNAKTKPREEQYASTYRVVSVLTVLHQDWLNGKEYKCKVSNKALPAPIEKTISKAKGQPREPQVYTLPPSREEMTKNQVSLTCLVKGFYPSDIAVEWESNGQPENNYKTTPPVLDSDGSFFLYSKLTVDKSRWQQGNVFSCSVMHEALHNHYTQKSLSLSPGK
light: ADIVMTQSPSSLSASVGDRVTIKCQASQSISAYLAWYQQKPGKVPKLLIYRAYTLASGVPSRFSGSGSGTDFTLTISSLQPEDVATYYCQSYYSVTTNTYGNTFGGGTKVEIKRTVAAPSVFIFPPSDEQLKSGTASVVCLLNNFYPREAKVQWKVDNALQSGNSQESVTEQDSKDSTYSLSSTLTLSKADYEKHKVYACEVTHQGLSSPVTKSFNRGEC
notes: also called antibody Ab18
B4: Ab11 (antibody, human IgG1, kappa, N297A)
heavy: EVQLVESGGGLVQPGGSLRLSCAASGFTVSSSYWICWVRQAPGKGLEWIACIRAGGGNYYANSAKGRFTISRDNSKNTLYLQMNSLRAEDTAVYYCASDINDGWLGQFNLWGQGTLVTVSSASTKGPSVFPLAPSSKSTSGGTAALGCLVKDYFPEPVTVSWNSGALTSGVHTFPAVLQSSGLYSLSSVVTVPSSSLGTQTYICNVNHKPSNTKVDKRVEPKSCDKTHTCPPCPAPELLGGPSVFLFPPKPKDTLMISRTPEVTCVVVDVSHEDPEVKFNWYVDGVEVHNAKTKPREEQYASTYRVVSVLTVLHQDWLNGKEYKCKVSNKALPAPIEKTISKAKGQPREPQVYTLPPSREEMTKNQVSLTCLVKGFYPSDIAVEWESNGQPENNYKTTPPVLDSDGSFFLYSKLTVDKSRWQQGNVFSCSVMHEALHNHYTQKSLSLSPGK
light: ANIVMTQSPSSLSASVGDRVTITCQASQSISNYLAWYQQKPGKVPKLLIYRTSTLASGVPSRFSGSGSGTDFTLTISSLQPEDVATYYCQSYYSVTTVAYGNTFGGGTKVEIKRTVAAPSVFIFPPSDEQLKSGTASVVCLLNNFYPREAKVQWKVDNALQSGNSQESVTEQDSKDSTYSLSSTLTLSKADYEKHKVYACEVTHQGLSSPVTKSFNRGEC
notes: also called antibody Ab11
B5: Ab12 (antibody, human IgG1, kappa, N297A)
heavy: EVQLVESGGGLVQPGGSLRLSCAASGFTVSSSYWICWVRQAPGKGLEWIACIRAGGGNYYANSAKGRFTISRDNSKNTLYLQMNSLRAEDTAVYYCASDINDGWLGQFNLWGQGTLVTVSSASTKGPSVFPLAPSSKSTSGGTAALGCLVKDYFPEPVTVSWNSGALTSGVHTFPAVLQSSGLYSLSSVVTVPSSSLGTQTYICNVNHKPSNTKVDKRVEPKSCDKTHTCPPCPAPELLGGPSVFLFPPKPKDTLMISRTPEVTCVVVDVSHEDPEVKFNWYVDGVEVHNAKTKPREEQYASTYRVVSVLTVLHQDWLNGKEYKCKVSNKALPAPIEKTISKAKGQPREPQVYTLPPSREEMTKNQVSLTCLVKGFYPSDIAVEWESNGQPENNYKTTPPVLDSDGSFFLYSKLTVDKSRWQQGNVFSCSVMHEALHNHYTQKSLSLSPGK
light: ANIVMTQSPSSLSASVGDRVTIKCQASQSISNYLAWYQQKPGKVPKLLIYRTSTLASGVPSRFSGSGSGTDFTLTISSLQPEDVATYYCQSYYSVTTVAYGNTFGGGTKVEIKRTVAAPSVFIFPPSDEQLKSGTASVVCLLNNFYPREAKVQWKVDNALQSGNSQESVTEQDSKDSTYSLSSTLTLSKADYEKHKVYACEVTHQGLSSPVTKSFNRGEC
notes: also called antibody Ab12
B6: Ab8 (antibody, human IgG1, kappa, N297A, V domains shown)
VH: QEQLVESGGGLVQPEGSLTLTCTASGFSFTSDYYMCWVRQAPGKGLEWIGCISTGDGSTYYASWAKGRFTISKPSSTTVTLQMTRLTAADTATYFCARDRYYSYAYGAYVYASDLWGPGTLVTVSS
VL: DIVMTQTPASVSEPVGGTVTINCQASESIRNYLSWYQQKPGQRPKLLIYGASTLASGVPSRFKGSGSGTDFTLTISDLECADAATYYCQSNYGISSRSYVNGFGGGTEVVVKR
notes: also called antibody Ab8
B7: Ab1 (antibody, human IgG1, kappa, N297A, V domains shown)
VH: QSVEESGGRLVTPGTPLTLTCTVSGFSLSSYWMTWVRQAPGKGLEYIGIISSSGSTYYATWAKGRFTISKTSSTTVDLEITSPTTEDTATYFCARDSAFSSGLEFNIWGPGTLVTVSS
VL: AYDLTQTPASVEVAVGGTVTIKCQASQSVYSNWLSWYQQKPGQPPKLLIYDASDLASGVPSRFKGSGSGTQFTLTISGVQCDDAATYYCQQGQSSSDIDNTFGGGTEVVVKR
notes: also called antibody Ab1
B8: Ab5 (antibody, human IgG1, kappa, N297A, V domains shown)
VH: QSVEESGGRLVTPGTPLTLTCTVSGFSLSSYAMSWVRQAPGKGLEWIGIISNSGTTYYASWAKGRFTISKTSTTVDLKITSPTTEDTATYFCARGIYWYWRVFNLWGPGTLVTVSS
VL: AVLTQTPSPVSAAVGGTVTINCQASQSVYNNLLSWYQQKPGQPPKLLIYDASNLASGVPDRFSGSGSGTQFTLTISGVQCDDAATYYCLGGYDDDADNAFGGGTEVVVKR
notes: also called antibody Ab5
B9: Ab15 (antibody, human IgG1, kappa, N297A, V domains shown)
VH: QEQLEESGGDLVKPEGSLTLTCTASGFSFSSSYWICWVRQAPGKGLEWIACIDAGNSGSTYYASWAKGRFTISKASSTTVTLQMTSLTAADTATYFCASDLNDGWLGQFNLWGPGTLVTVSS
VL: NIVMTQTPSPVSGAVGGTVTIKCQASQSISDYLAWYQQKPGQPPKLLIYRASTLASGVPSRFRGSGSGTEYTLTITDLECADAATYYCQSYYSVTTNTYGNTFGGGTEVVVKR
notes: also called antibody Ab15
B10: Ab13 (antibody, human IgG1, kappa, N297A, V domains shown)
VH: QSVEESGGRLVTPGTPLTLTCTVSGIDLSTYGVGWVRQAPGKGLEYIGIISSSGSTYYASWAKGRFTISKTSSTTVDLKMTSLTTEDTATYFCARDWSSTTGYYGYFNMWGPGTLVTVSS
VL: AFELTQTPSPVSAAVGGTVTIKCQASQSISTALAWYQQKPGQPPKLLIYGASNLESGVPSRFSGSGSGTQFTLTISDLECADAAIYYCQSSYGSSTLAFGGGTEVVVKR
notes: also called antibody Ab13
B11: Ab6 (antibody, human IgG1, kappa, N297A, V domains shown)
VH: QEQLEESGGDLVKPEGSLTLTCTASGFSFSSNYWICWVRQAPGKGLEWIGCIRDGGGTYYASWAKGRLTISMTSSTTVTLQLNSLTAADTATYFCASDINDGWLGQFNLWGPGTLVTVSS
VL: DIVMTQTPASVEVAVGGTVTIKCQASQSISAYLAWYQQKPGQPPKLLIYRAYTLASGVPSRFKGSGSGTQFTLTISDLECADAATYYCQSYYSVTTNTYGNTFGGGTEVVVKR
notes: also called antibody Ab6
B12: Ab16 (antibody, human IgG1, kappa, N297A, V domains shown)
VH: QEQLVESGGGLVQPEGSLTLTCTASGFSFSSDYWICWVRQAPGKGLEWIGCIRDGGGSYYANWAKGRLTISMTSSTTVGLKMTSLTAADTATYFCASDINDGWLGQFNLWGPGTLVTVSS
VL: DIVMTQTPASVEAAVGGTVTIKCQASQSISSYLAWYQQKPGQPPKLLIYRASTLASGVPSRFSGSGSGTEFTLTISDLECADAATYYCQSYYSVTTVTYGNTFGGGTEVVVKR
notes: also called antibody Ab16
B13: Ab14 (antibody, human IgG1, kappa, N297A, V domains shown)
VH: QEQLEESGGDLVKPEGSLTLTCTGSGFSFSSIAYMCWIRQAPGKGLEWIGCIGSGSGNTYYANWAKGRFTISKSSSTTVTLQMTSLTAADTATYFCASDTNNGWLGQFNLWGQGTLVTVSS
VL: DIVMTQTPASVSAAVGGTVTINCQASQSISSYLAWYQQKPGQPPKLLIYRASTLASGVPSRFKGSGSGTQFTLTISDLECADAATYYCQGYYSVTTNTYGNTFGGGTEVVVKR
notes: also called antibody Ab14
B14: Ab10 (antibody, human IgG1, kappa, N297A, V domains shown)
VH: QEQLEESGGDLVKPEGSLTLTCTASGFSFSSSYWICWVRQAPGKGLEWIACIRAGGGNYYANWAKGRFTISRTSSTTVTLQMTSLTAADTATYFCASDINDGWLGQFNLWGPGTLVTVSS
VL: NIVMTQTPASVEAAVGGTVTIKCQASQSISNYLAWYQQKPGQPPKLLIYRTSTLASGVPSRFKGSGSGTQFTLTISDLECADAATYYCQSYYSVTTVAYGNTFGGGTEVVVKR
notes: also called antibody Ab10
B15: Ab17 (antibody, human IgG1, kappa, N297A, V domains shown)
VH: QEQLEESGGDLVKPEGSLTLTCTASGFSFSSSYWICWVRQAPGKGLEWIGCIRPGSADYYASWAKGRFTISRASSSTVTLQMTSLTAADTATYFCASDINDGWLGQFNLWGPGTLVTVSS
VL: DVVMTQTPASVEAAVGGTVTIKCQASLSIADYLAWYLQKPGQPPKLLIYRASTLASGVPSRFKGSGSGTEYTLTISDLECADAATYYCQSYYSVTTNTYGNTFGGGTEVVVKR
notes: also called antibody Ab17
B16: Ab2 (antibody, human IgG1, kappa, N297A, V domains shown)
VH: QSVEESGGRLVTPGTPLTLTCTVSGFSLSSYAMSWVRQAPGKGLEWIGIIDAIDNTYYASWAKGRFTISKTSTTVDLKMTSLTTGDTATYFCARASILGYSIATGFNIWGPGTLVTVSS
VL: AYDMTQTPASVEVAVGGTVTIKCQASQSISSHLAWYQQKSGQPPKLLIYRASTLESGVSSRFKGSGSGTEFTLTISDLECADAATYYCQQGYGVSDVDNGFGGGTEVVVKR
notes: also called antibody Ab2
B17: Ab4 (antibody, human IgG1, kappa, N297A, V domains shown)
VH: QSVEESGGRLVTPGTPLTLTCTVSGIDLSSYAMIWVRQAPEKGLEYIGYIGGIDSTYYASWAKGRFTISKTSTTVDLKMTSPTTEDTATYFCGRWSGTSGYNTIWGPGTLVTVSS
VL: DVVMTQTPASVEAAVGGTVTIKCQASQSIYSNLAWYQQKPGQPPKLLIYGASNLASGVSSRFKGSRSGTEYTLTISDLECADAATYYCQCTGGGDSGNTFGGGTEVVVKR
notes: also called antibody Ab4

T1 sequence (Q8NBP7 31-692 limits assumed): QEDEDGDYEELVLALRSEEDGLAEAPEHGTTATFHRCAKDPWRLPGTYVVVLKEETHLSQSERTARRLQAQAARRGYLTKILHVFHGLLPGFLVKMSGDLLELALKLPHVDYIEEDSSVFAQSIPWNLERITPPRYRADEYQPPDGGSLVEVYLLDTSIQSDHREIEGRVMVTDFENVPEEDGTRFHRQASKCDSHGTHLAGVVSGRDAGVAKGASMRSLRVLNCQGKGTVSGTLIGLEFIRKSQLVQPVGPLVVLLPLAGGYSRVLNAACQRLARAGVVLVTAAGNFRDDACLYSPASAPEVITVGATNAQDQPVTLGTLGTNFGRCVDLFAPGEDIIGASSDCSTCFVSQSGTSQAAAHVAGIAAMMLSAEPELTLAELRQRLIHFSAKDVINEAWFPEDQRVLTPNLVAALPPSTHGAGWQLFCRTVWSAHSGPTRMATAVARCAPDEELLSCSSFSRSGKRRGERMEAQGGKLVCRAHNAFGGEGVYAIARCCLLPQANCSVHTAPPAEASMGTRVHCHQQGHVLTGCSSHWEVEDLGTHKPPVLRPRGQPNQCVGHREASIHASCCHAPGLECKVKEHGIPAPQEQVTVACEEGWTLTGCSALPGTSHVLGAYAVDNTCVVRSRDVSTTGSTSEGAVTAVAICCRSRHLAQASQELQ

The assay concerns the target T1, human Proprotein Convertase Subtilisin-like/Kexin type 9 (human, UniProt Q8NBP7 31-692, limits assumed).
T1 construct: Biotinylated in the ELISAs; unlabelled analyte in BLI and SPR; also called human PCSK9; PCSK9
Nature of the assay: BLI (Octet QK), biotinylated antibody on streptavidin sensors, human PCSK9 in solution, 1:1 fit. The method, then:
Binding affinities of monoclonal antibodies for PCSK9 were estimated using Bio-Layer Interferometry (BLI) on the Octet QK (ForteBio). Biotinylated antibody was immobilized at different densities to the surface of Streptavidin (SA) Biosensors. A dilution series of human PCSK9 prepared in 1× Kinetics Buffer (NaCl 0.0138 M; KCl 0.00027 M; 0.1 mg/mL BSA, 0.002% Tween and 0.005% Sodium Azide; pH 7.4, at 25° C.) purchased from the manufacturer (ForteBio) was used to query the antibodies. At our chosen concentrations of antigen (˜0.25 μg/mL-2 μg/mL) association times of 15 minutes and dissociation times of 25 minutes were used with the Octet Analysis Software (v6.4, ForteBio), to globally fit data using a 1:1 Langmuir binding model.
Consider B1, for which the affinity, expressed as Kd, was 0.637 nM; the koff was determined as 4.91e-05 s⁻¹; the kon came to 77000 M⁻¹ s⁻¹.

Molecule B2 had a Kd of 0.379 nM, a koff of 2.68e-05 s⁻¹ and a kon of 70700 M⁻¹ s⁻¹.

B3 registered a Kd of 0.215 nM, a koff of 2.09e-05 s⁻¹ and a kon of 97000 M⁻¹ s⁻¹.

In the case of B4, the Kd was found to be 0.332 nM, the off-rate (koff) stood at 2.22e-05 s⁻¹ and the kon is 66800 M⁻¹ s⁻¹.

In turn, B5 returned a Kd of 0.12 nM, a dissociation rate constant (koff) of 1.21e-05 s⁻¹ and a kon of 100000 M⁻¹ s⁻¹.

With B6, binding was characterised by a dissociation constant (Kd) of 0.637 nM, the koff was 4.91e-05 s⁻¹ and the kon was 77000 M⁻¹ s⁻¹.

B7 registered a Kd of 7.99 nM, a koff of 0.0013 s⁻¹ and a kon of 162000 M⁻¹ s⁻¹.

With B8, the Kd worked out at 3.16 nM, the koff was determined as 0.000278 s⁻¹ and the kon is 88100 M⁻¹ s⁻¹.

Molecule B9 yielded a Kd of 0.839 nM, a koff of 5.8e-05 s⁻¹ and a kon of 69200 M⁻¹ s⁻¹.

In turn, B10 registered a Kd of 2.23 nM, a koff of 0.000353 s⁻¹ and a kon of 159000 M⁻¹ s⁻¹.

Regarding B11, the affinity, expressed as Kd, was 0.531 nM; the koff turned out to be 4e-05 s⁻¹; the kon turned out to be 75300 M⁻¹ s⁻¹.

Consider B12, for which the affinity, expressed as Kd, was 1.28 nM; the off-rate (koff) is 9.92e-05 s⁻¹; the kon was determined as 77500 M⁻¹ s⁻¹.

The molecule B13 yielded a Kd of 3.7 nM, a koff of 0.000362 s⁻¹ and a kon of 97900 M⁻¹ s⁻¹.

In turn, B14 returned a Kd of 0.676 nM, a koff of 5.09e-05 s⁻¹ and a kon of 75300 M⁻¹ s⁻¹.

In the case of B15, binding was put at a Kd of 0.609 nM, the koff was determined as 6.27e-05 s⁻¹ and the kon was 103000 M⁻¹ s⁻¹.

B16 had a Kd of 4.25 nM, a koff of 0.000453 s⁻¹ and a kon of 107000 M⁻¹ s⁻¹.

In the case of B17, the affinity, expressed as Kd, was 6 nM; the koff worked out at 0.000422 s⁻¹; the kon was determined as 70300 M⁻¹ s⁻¹.
